Measurements from US20060135432A1, “Agonists and antagonists of conadotropin-releasing hormone-2, and use thereof” (priority 2002, published 2006).
[ ]: non-standard residue; d: D form. dPhe(4-Cl) = N[C@H](Cc1ccc(Cl)cc1)C(=O)O; d2Nal = N[C@H](Cc1ccc2ccccc2c1)C(=O)O; dCit = NC(=O)NCCC[C@@H](N)C(=O)O; d3Pal = N[C@H](Cc1cccnc1)C(=O)O

How the values were obtained:
bfGnRHR-3 (bullfrog) [1] = experiment: cell-based or functional assay; settings: for Log IC50, inhibition of GnRH-2-induced inositol phosphate production in GH3 cells expressing the receptor: scale: log IC50
rat GnRHR (rat) [2] = molecular target: rat GnRHR (rat) (UniProt P30969); experiment: cell-based or functional assay; settings: scale: log IC50
rat GnRHR (rat) [3] = molecular target: rat GnRHR (rat) (UniProt P30969); experiment: displacement of I^125-GnRH-2 from membranes of GH3 cells expressing rat GnRHR; settings: scale: log IC50
bfGnRHR-3 (bullfrog) [4] = experiment: displacement of I^125-GnRH-2 from membranes of GH3 cells expressing bfGnRHR-3; settings: scale: log IC50

Sequence of rat GnRHR (rat) (P30969 whole entry): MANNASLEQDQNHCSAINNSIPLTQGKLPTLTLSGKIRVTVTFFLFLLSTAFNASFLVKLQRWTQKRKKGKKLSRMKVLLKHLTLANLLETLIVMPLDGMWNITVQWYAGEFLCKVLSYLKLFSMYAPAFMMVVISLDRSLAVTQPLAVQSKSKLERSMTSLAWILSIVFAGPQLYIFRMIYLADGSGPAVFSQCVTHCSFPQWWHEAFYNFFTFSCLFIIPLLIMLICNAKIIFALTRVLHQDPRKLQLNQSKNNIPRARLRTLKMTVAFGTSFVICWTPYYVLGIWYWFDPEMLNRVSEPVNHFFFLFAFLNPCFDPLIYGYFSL

Row | Log IC50, inhibition of GnRH-2-induced inositol phosphate production in GH3 cells expressing the receptor (bfGnRHR-3 (bullfrog) [1]) | Log IC50, inhibition of GnRH-induced inositol phosphate production in GH3 cells expressing the receptor (rat GnRHR (rat) [2]) | log IC50 (rat GnRHR (rat) [3]) | log IC50 (bfGnRHR-3 (bullfrog) [4]) | inhibition of GnRH-2-induced IP production, sensitivity compared with Cetrorelix (fold more sensitive than Cetrorelix) (bfGnRHR-3 (bullfrog) [1]) | Binder
1 | -6.28 | -11 | -12.6 | -7.11 | – | Ac-[d2Nal][dPhe(4-Cl)][d3Pal]SY[dCit]LRP[dA]-NH2 [Cetrorelix]
2 | -8.49 | -9.27 | -11.8 | -11.7 | 1000 | Ac-[d2Nal][dPhe(4-Cl)][d3Pal]SY[dCit]WYP[dA]-NH2 [Trptorelix-1]
